Our source for the abundance fitness values is the Human Domainome abundance scans (Beltran et al. 2025).

B1: Far upstream element-binding protein 3, residues 75 to 150; numbered along this chain, Q96I24 (parent)
chain: RTVITEEFKVPDKMVGFIIGRGGEQISRIQAESGCKIQIASESSGIPERPCVLTGTPESIEQAKRLLGQIVDRCRN

± gives the uncertainty stated by the source.

The series covers variants of B1. The series can be described thus: abundance fitness (aPCA) (normalised: wild type 0, dead -1); higher = more abundant; growth selection in yeast, the domain comes from the species named. Conditions: Homo sapiens.
Take RTVITEEFKVPDKMVGFIIGRGGEQISRIQAESGCKIQIASESSGIPERPCVLTGTPESIEQAKRLLGQIVLRCRN: the abundance fitness is -0.083 ± 0.033. For RTVITEEFKVPDKMVGFIIGRGGEQISRIQAESGCKIQIASESSGIPERPCVLTGTPESIEQAKRLLGQIVSRCRN, the abundance fitness is -0.035 ± 0.033. In the case of RTVITEEFKVPDKMVGFIIGRGGEQISRIQAESGCKIQIASESSGIPERPCVLTGTPESIEQAKRLLGQIVTRCRN, the abundance fitness was -0.1 ± 0.04. On to RTVITEEFKVPDKMVGFIIGRGGEQISRIQAESGCKIQIASESSGIPERPCVLTGTPESIEQAKRLLGQIVWRCRN, for which the abundance fitness is -0.108 ± 0.035. Turning to RTVITEEFKVPDKMVGFIIGRGGEQISRIQAESGCKIQIASESSGIPERPCVLTGTPESIEQAKRLLGQIVIRCRN, the abundance fitness is -0.225 ± 0.064. On to RTVITEEFKVPDKMVGFIIGRGGEQISRIQAESGCKIQIASESSGIPERPCVLTGTPESIEQAKRLLGQIVMRCRN, for which the abundance fitness was -0.084 ± 0.042.

As to RTVITEEFKVPDKMVGFIIGRGGEQISRIQAESGCKIQIASESSGIPERPCVLTGTPESIEQAKRLLGQIVKRCRN, the abundance fitness was -0.048 ± 0.049. For RTVITEEFKVPDKMVGFIIGRGGEQISRIQAESGCKIQIASESSGIPERPCVLTGTPESIEQAKRLLGQIVQRCRN, the abundance fitness was -0.086 ± 0.041. On to RTVITEEFKVPDKMVGFIIGRGGEQISRIQAESGCKIQIASESSGIPERPCVLTGTPESIEQAKRLLGQIVHRCRN, for which the abundance fitness was -0.023 ± 0.058. Turning to RTVITEEFKVPDKMVGFIIGRGGEQISRIQAESGCKIQIASESSGIPERPCVLTGTPESIEQAKRLLGQIVERCRN, the abundance fitness was determined as 0.003 ± 0.033.

Turning to RTVITEEFKVPDKMVGFIIGRGGEQISRIQAESGCKIQIASESSGIPERPCVLTGTPESIEQAKRLLGQIVVRCRN, the abundance fitness is -0.093 ± 0.029. Next, RTVITEEFKVPDKMVGFIIGRGGEQISRIQAESGCKIQIASESSGIPERPCVLTGTPESIEQAKRLLGQIVARCRN: -0.052 ± 0.029; RTVITEEFKVPDKMVGFIIGRGGEQISRIQAESGCKIQIASESSGIPERPCVLTGTPESIEQAKRLLGQIVFRCRN: -0.118 ± 0.065. Turning to RTVITEEFKVPDKMVGFIIGRGGEQISRIQAESGCKIQIASESSGIPERPCVLTGTPESIEQAKRLLGQIVGRCRN, the abundance fitness was -0.033 ± 0.026. For RTVITEEFKVPDKMVGFIIGRGGEQISRIQAESGCKIQIASESSGIPERPCVLTGTPESIEQAKRLLGQIVNRCRN, the abundance fitness is -0.155 ± 0.061.

Regarding RTVITEEFKVPDKMVGFIIGRGGEQISRIQAESGCKIQIASESSGIPERPCVLTGTPESIEQAKRLLGQIVYRCRN, the abundance fitness is -0.124 ± 0.064.

With RTVITEEFKVPDKMVGFIIGRGGEQISRIQAESGCKIQIASESSGIPERPCVLTGTPESIEQAKRLLGQIVPRCRN, the abundance fitness is -0.142 ± 0.039. Under RTVITEEFKVPDKMVGFIIGRGGEQISRIQAESGCKIQIASESSGIPERPCVLTGTPESIEQAKRLLGQIVCRCRN stands -0.138 ± 0.046. For RTVITEEFKVPDKMVGFIIGRGGEQISRIQAESGCKIQIASESSGIPERPCVLTGTPESIEQAKRLLGQITDRCRN, the abundance fitness was -0.026 ± 0.042.

On to RTVITEEFKVPDKMVGFIIGRGGEQISRIQAESGCKIQIASESSGIPERPCVLTGTPESIEQAKRLLGQISDRCRN, for which the abundance fitness is -0.118 ± 0.037.

RTVITEEFKVPDKMVGFIIGRGGEQISRIQAESGCKIQIASESSGIPERPCVLTGTPESIEQAKRLLGQINDRCRN: the abundance fitness is -0.072 ± 0.054. For RTVITEEFKVPDKMVGFIIGRGGEQISRIQAESGCKIQIASESSGIPERPCVLTGTPESIEQAKRLLGQIWDRCRN, the abundance fitness is -0.175 ± 0.035. On to RTVITEEFKVPDKMVGFIIGRGGEQISRIQAESGCKIQIASESSGIPERPCVLTGTPESIEQAKRLLGQIMDRCRN, for which the abundance fitness is -0.013 ± 0.04.

Regarding RTVITEEFKVPDKMVGFIIGRGGEQISRIQAESGCKIQIASESSGIPERPCVLTGTPESIEQAKRLLGQILDRCRN, the abundance fitness was -0.092 ± 0.034. With RTVITEEFKVPDKMVGFIIGRGGEQISRIQAESGCKIQIASESSGIPERPCVLTGTPESIEQAKRLLGQIRDRCRN, the abundance fitness was -0.151 ± 0.026. Turning to RTVITEEFKVPDKMVGFIIGRGGEQISRIQAESGCKIQIASESSGIPERPCVLTGTPESIEQAKRLLGQIYDRCRN, the abundance fitness is -0.047 ± 0.054.

Regarding RTVITEEFKVPDKMVGFIIGRGGEQISRIQAESGCKIQIASESSGIPERPCVLTGTPESIEQAKRLLGQIQDRCRN, the abundance fitness was -0.048 ± 0.044. Next, RTVITEEFKVPDKMVGFIIGRGGEQISRIQAESGCKIQIASESSGIPERPCVLTGTPESIEQAKRLLGQIKDRCRN: -0.132 ± 0.044; RTVITEEFKVPDKMVGFIIGRGGEQISRIQAESGCKIQIASESSGIPERPCVLTGTPESIEQAKRLLGQIPDRCRN: -0.198 ± 0.043; RTVITEEFKVPDKMVGFIIGRGGEQISRIQAESGCKIQIASESSGIPERPCVLTGTPESIEQAKRLLGQIVDICRN: -0.136 ± 0.07. Under RTVITEEFKVPDKMVGFIIGRGGEQISRIQAESGCKIQIASESSGIPERPCVLTGTPESIEQAKRLLGQIVDCCRN stands -0.157 ± 0.05; under RTVITEEFKVPDKMVGFIIGRGGEQISRIQAESGCKIQIASESSGIPERPCVLTGTPESIEQAKRLLGQIVDLCRN, -0.104 ± 0.033; under RTVITEEFKVPDKMVGFIIGRGGEQISRIQAESGCKIQIASESSGIPERPCVLTGTPESIEQAKRLLGQIVDFCRN, -0.103 ± 0.059. Under RTVITEEFKVPDKMVGFIIGRGGEQISRIQAESGCKIQIASESSGIPERPCVLTGTPESIEQAKRLLGQIVDECRN stands 0.043 ± 0.036.

As to RTVITEEFKVPDKMVGFIIGRGGEQISRIQAESGCKIQIASESSGIPERPCVLTGTPESIEQAKRLLGQIVDGCRN, the abundance fitness was 0.054 ± 0.029. Take RTVITEEFKVPDKMVGFIIGRGGEQISRIQAESGCKIQIASESSGIPERPCVLTGTPESIEQAKRLLGQIVDDCRN: the abundance fitness turned out to be 0.047 ± 0.052.
